Results: patent US5733730, “Telomere repeat binding factor and diagnostic and therapeutic use thereof” (The Rockefeller University)

T1: TRF (MTRF12, full length) (Mus musculus, UniProt P70371 P70371:1-421)
T1 sequence: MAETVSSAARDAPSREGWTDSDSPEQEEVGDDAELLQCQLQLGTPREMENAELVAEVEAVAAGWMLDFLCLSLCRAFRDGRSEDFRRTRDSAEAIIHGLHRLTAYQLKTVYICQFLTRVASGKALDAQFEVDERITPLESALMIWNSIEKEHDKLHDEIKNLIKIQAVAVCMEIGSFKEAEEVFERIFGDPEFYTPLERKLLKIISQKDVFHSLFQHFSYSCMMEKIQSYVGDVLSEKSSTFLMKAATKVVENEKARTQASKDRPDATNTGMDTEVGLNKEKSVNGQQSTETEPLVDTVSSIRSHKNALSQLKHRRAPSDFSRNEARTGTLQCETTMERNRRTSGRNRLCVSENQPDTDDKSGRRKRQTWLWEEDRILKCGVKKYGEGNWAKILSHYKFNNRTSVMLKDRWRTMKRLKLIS

T2: TRF purified from HeLa nuclear extract (Homo sapiens, UniProt P54274 SEQ:1-439)
T2 chain: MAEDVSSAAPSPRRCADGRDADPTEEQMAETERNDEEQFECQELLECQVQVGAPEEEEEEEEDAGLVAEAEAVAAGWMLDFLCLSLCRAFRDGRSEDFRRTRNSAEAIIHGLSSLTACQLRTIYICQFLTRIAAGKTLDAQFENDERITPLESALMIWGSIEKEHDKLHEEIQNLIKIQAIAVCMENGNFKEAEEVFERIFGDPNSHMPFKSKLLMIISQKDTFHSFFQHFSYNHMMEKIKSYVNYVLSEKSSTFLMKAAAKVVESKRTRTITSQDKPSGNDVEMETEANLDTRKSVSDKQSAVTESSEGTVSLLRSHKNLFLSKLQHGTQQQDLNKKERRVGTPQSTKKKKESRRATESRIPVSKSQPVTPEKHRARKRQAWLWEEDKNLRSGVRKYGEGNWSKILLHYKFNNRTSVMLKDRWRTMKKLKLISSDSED

B1: (TTAGGG)12 restriction fragment probe (dsDNA)
DNA 1: TTAGGGTTAGGGTTAGGGTTAGGGTTAGGGTTAGGGTTAGGGTTAGGGTTAGGGTTAGGGTTAGGGTTAGGG
DNA 2: CCCTAACCCTAACCCTAACCCTAACCCTAACCCTAACCCTAACCCTAACCCTAACCCTAACCCTAACCCTAA
B2: 145 bp TTAGGG repeat gel-shift probe (dsDNA)
DNA 1: GTACCCGGGGATCGTGACTCTAGAGGGGCCCTAACCCTAACCCTAACCCTAACCCTAACCCTAACCCTAACCCTAACCCTAACCCTAACCCTAACCCTAACCCTAACCCGGGTCGAATTCGATCTCTAGAGTCGACCTGCAGGCATGC
DNA 2: GCATGCCTGCAGGTCGACTCTAGAGATCGAATTCGACCCGGGTTAGGGTTAGGGTTAGGGTTAGGGTTAGGGTTAGGGTTAGGGTTAGGGTTAGGGTTAGGGTTAGGGTTAGGGTTAGGGCCCCTCTAGAGTCACGATCCCCGGGTAC

What was measured:
[1] = biological target: T1, TRF (MTRF12, full length); assay: EMSA; reticulocyte lysate; complex co-migrates with J558 mouse TRF; settings: label: radiolabelled
Text: The mouse cDNA (MTRF12) contained its own initiator codon and was transcribed and translated without further modification using the T3 promoter in its pBluescript vector. Similar to the human cDNA, a ~60 kD protein was synthesized that bound TTAGGG repeats but not TYGGGG or TTAGGC repeats (FIG. 6).

[2] = biological target: TRF (HTRF4.1, TRF1) partial ORF from N-terminal XhoI site to stop (Homo sapiens, UniProt P54274 SEQ:45-439); assay: EMSA; reticulocyte lysate; no complex without TRF cDNA; text of Example 4 prints probe as (TTAGGG)2; settings: tags: His6 (pET28b, Novagen) N-terminal fusion; label: radiolabelled
Text: Proof that the cDNAs encode TRF activity. One of the human cDNAs (HTRF4.1) was used to construct a fusion protein in which part of the TRF open reading frame from the N-terminal Xho I site to the natural termination codon at the Hind III site was inserted into the pET28b His6Tag expression vector from Novagen (Madison, Wis.). This new, chimeric open reading frame contained an initiator ATG codon with "Kozak rules" environment at its 5' end as well as an T7 RNA polymerase promoter sequence upstream. This construct was used for in vitro coupled transcription/translation (using a kit from Promega) resulting in synthetic protein (labelled with […]) with an apparent molecular weight (MW) of 60 kD. The in vitro synthesized protein was used in a gel-shift assay with a double stranded (TTAGGG)_2 repeat probe and shown to form a complex that migrates close to the HeLa TRF gel-shift complex.

[3] = biological target: T2, TRF purified from HeLa nuclear extract; assay: EMSA; column fractions in 100 mM KCl, 20 mM HEPES, 3 mM MgCl2, 20% glycerol, 0.1% NP-40; binding lost when highly purified, rescued by casein; settings: label: radiolabelled
Procedure: TRF was isolated from a total of 9.2×10^11 HeLa Cells, equivalent to 940 liters of culture (in Joklik's Media, supplemented with bovine calf serum, 2 mM L-glutamine, 0.1 mM non-essential amino acids, and penicillin/streptomycin). A nuclear extract containing 4 grams of protein and about 650 pmol of TRF (1 pmol TRF is defined as the amount of protein required to complex 1 pmol of labelled probe), as determined by quantitation using a PhosphoImager, was obtained from the cells and the soluble fraction was then purified over a series of ion exchange and affinity columns, as noted above. For each column, the sample was loaded in buffer containing 100 mM KCl and the flow-through was reloaded. The columns were developed in buffer with increasing potassium chloride salt concentration, with a final stripping of the column with 1M salt. All fractions were dialyzed to 100 mM KCl, 20 mM HEPES, 3 mM MgCl_2, 20% glycerol, and 0.1% NP-40 (nonidet-P40). Activity was determined by gel shift assay using a probe of 145 bp fragment containing (TTAGGG)_2 having the following sequence (SEQ D NO:21): […]

Row | Binder | binding result [1] | binding result [2] | binding result [3]
1 | B1 | binds | binds | 
2 | B2 |  |  | binds
